For assay [1], the system named is chromatin accessibility in HILO cells. The assay is described as follows: ATAC-Seq chromatin accessibility in HILOs. It is filed as cell-based, human. Conditions: sorted GFP+ cells, WNT4 treatment. The text has this:
[…] D. Buenrostro et al., 2015, Current Protocols in Molecular Biology, 109:21-29. Reads were aligned by Bowtie to hg19, and peaks were called by HOMER using default settings. Differential peaks and motif analyses from 2 biological duplicates were identified using HOMER essentially as instructed (see, e.g., S. Heinz et al., 2010, J. Mol. Cell, 38:576-589). Detailed methods for HOMER are freely available, e.g., at http://http://homer.salk.edu/homer/. Briefly, the program searches against the target and background sequences for enrichment of known motifs, and returns motifs enriched with a threshold of 1.5-fold change and a p-value of less than 0.05. Promoter regions, defined as 1 kilobase (kB) upstream from the transcription start site, of genes with enhanced chromatin accessibility upon Wnt4 treatment, were interrogated for enriched motifs of 8-16 bp using HOMER motif analysis.

Assay [2] deals with insulin-expressing cells of HILOs. The assay is described as follows: Mitochondrial content (MitoTracker) and insulin-GFP by flow cytometry. The format is cell-based, human. The source says:
FIGS. 8A-8H provide images, graphs, a schematic and a diagram showing results related to WNT4 mediated insulin-GFP expression and WNT4-driven metabolic maturation. FIG. 8A presents representative images of mitochondrial content, indicated by MitoTracker (red) staining, in PBS and WNT4 treated HILOs (scale bar, 100 μm). FIG. 8B presents graphs of flow cytometry quantification of insulin expression (GFP) and mitochondrial content in HILOs treated with recombinant human WNT4 (rhWNT4), WNT5A (rhWNT5A), or conditioned medium (CM) from control or WNT5A overexpressing fibroblasts (n=3). Error bars represent SEM. *p<0.05. FIG. 8C presents a gene ontology of transcriptional changes induced by WNT4 treatment (100 ng/ml WNT4 from day26 to day33) in HILOs. […] Error bars represent SEM. *p<0.05. FIG. 8E presents a Venn diagram showing overlap between WNT4-induced increases in chromatin accessibility in GFP^+ cells and increases in HILO gene expression (upper panel), and gene ontology pathways enriched in the intersection gene set. […] For FIGS. 8G and 8H, postnatal islets (day P11-14) from WT and β cell specific ERRγKO mice were cultured with or without rhWNT4 (100 ng/ml) for >5 days.
(In general: Flow cytometry measures light scatter and fluorescence of single cells or particles in a stream.)

A further assay relates to postnatal mouse islets. Kind of assay: rhWNT4 culture of postnatal islets from WT and β cell specific ERRγKO mice. It is filed as cell-based. Conditions: 100 ng/ml for 5 days; WT but not ERRγKO mice. The source says:
FIGS. 8A-8H provide images, graphs, a schematic and a diagram showing results related to WNT4 mediated insulin-GFP expression and WNT4-driven metabolic maturation. FIG. 8A presents representative images of mitochondrial content, indicated by MitoTracker (red) staining, in PBS and WNT4 treated HILOs (scale bar, 100 μm). FIG. 8B presents graphs of flow cytometry quantification of insulin expression (GFP) and mitochondrial content in HILOs treated with recombinant human WNT4 (rhWNT4), WNT5A (rhWNT5A), or conditioned medium (CM) from control or WNT5A overexpressing fibroblasts (n=3). Error bars represent SEM. *p<0.05. […]
Insulin release from intact islets was monitored using batch incubation methods as reported by E. Yoshihara et al., 2016, Cell metabolism, 23:622-634. […] After 30 minutes, the islets were pelleted by centrifugation and secreted insulin levels were determined in the medium by Enzyme Linked Immunosorbent Assay (ELISA), (Rat/mouse Insulin ELISA KIT (Millipore) and Human Insulin ELISA KIT or ultrasensitive human c-peptide ELISA Kit (Millipore) for mouse and human islets, respectively). […] After 30 minutes, the cells were pelleted by centrifugation and c-peptide levels were determined in the supernatant medium using the human c-peptide ELISA KIT (Millipore). […]

A further assay concerns HILO transcriptome. The assay is described as follows: Bulk RNA-Seq transcriptional changes in HILOs. Conditions: WNT4 100 ng/ml for days 26-33. The format is cell-based, human. Here is the method:
Total RNA was isolated from cell pellets treated with RNAlater (Invitrogen) using the RNeasy micro kit (Qiagen) and treated with DNaseI (Qiagen) for 30 minutes at room temperature. Sequencing libraries were prepared from 100-500 ng total RNA using the TruSeq RNA Sample Preparation Kit v2 (Illumina) according to the manufacturer's protocol. Briefly, mRNA was purified, fragmented, and used for first- and second-strand cDNA synthesis followed by adenylation of 3′ ends. Samples were ligated to unique adapters and PCR amplified. Libraries were then validated using the 2100 BioAnalyzer (Agilent), normalized and pooled for sequencing.
RNA-Seq libraries prepared from 3 biological replicates for each experimental condition were sequenced on the Illumina HiSeq 2500 using bar-coded multiplexing and a 100 bp read length. […] This yielded a median of 29.9M usable reads per sample. Short read sequences were mapped to a UCSC hg19 reference sequence using the RNA-Seq aligner STAR (A. Dobin et al., 2013, Bioinformatics, 29:15-21). […] Transcript expression was calculated as gene-level relative abundance in fragments per kilobase of exon model per million (fpkm) mapped fragments and employed correction for transcript abundance bias (A. Roberts et al., 2011, Bioinformatics, 27:2325-2329). […] Scale of heatmaps was determined by Z-score (FIG. 2A, FIG. 3D and FIG. 3G).

Entries after “also recorded” stand apart in the source; their conditions may differ.

B1: WNT4: recombinant human Wnt4 protein (R&D Systems), non-canonical WNT maturation factor (protein, UniProt P56705 23-351, looked up)
Protein Wnt-4: SNWLYLAKLSSVGSISEEETCEKLKGLIQRQVQMCKRNLEVMDSVRRGAQLAIEECQYQFRNRRWNCSTLDSLPVFGKVVTQGTREAAFVYAISSAGVAFAVTRACSSGELEKCGCDRTVHGVSPQGFQWSGCSDNIAYGVAFSQSFVDVRERSKGASSSRALMNLHNNEAGRKAILTHMRVECKCHGVSGSCEVKTCWRAVPPFRQVGHALKEKFDGATEVEPRRVGSSRALVPRNAQFKPHTDEDLVYLEPSPDFCEQDMRSGVLGTRGRTCNKTSKAIDGCELLCCGRGFHTAQVELAERCSCKFHWCCFVKCRQCQRLVELHTCR
With B1, the “genes with both increased chromatin accessibility and induced expression” value in assay [1] is recorded as 123 genes. For the same molecule, the “proportion of insulin expressing cells” value in assay [2] (GFP sorting, HILOs with and without WNT treatment) is given as “not affected”. Besides, the “mitochondrial content / number” value in assay [2] (MitoTracker, HILOs / insulin-expressing cells) is “increased mitochondrial number; also recorded: increased the mitochondrial content”. Also, the “mitochondrial metabolic gene expression and GSIS in neonatal islets” value with postnatal mouse islets is “induced the expression of mitochondrial metabolic genes and improved GSIS function”. Moreover, in the assay on HILO transcriptome, the “number of genes with decreased expression” value turned out to be 1354 genes and the “number of genes with increased expression” value amounted to 1581 genes.
